± gives the standard error. For part of these data: This sample holds only a part of the variants without activity.
B1: glmS ribozyme (parent)
chain: AUAAAAGCGCCAGAACUACAGAAAUGUAGUUGACGAGGAGGAGGUUUAUCGAAUUUUCGGCGGAUGCCUCCAAA

Assays:
Details in all cases: with glucosamine-6-phosphate
glucosamine-6-phosphate [1] = variants of: B1; assay: kcat; higher = faster cleavage; RNA array
Summary of the method: (§1)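 Over ~14 h at 37 °C, tiles were imaged as glucosamine-6-phosphate (40 μM to 10 mM) in HEPES/KCl/Mg(OAc)2 buffer flowed across sequenced MiSeq chips. The chips carried barcoded ribozyme variants transcribed in situ by E. coli RNA polymerase and tracked with a hybridised Cy3 probe. After normalisation to baseline and to non-cleaving reference variants, one- or two-exponential decay fits of per-tile medians gave kobs. kcat and KM followed from weighted Michaelis–Menten fits across concentrations.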

glucosamine-6-phosphate [2] = variants of: B1; assay: KM; higher = weaker cofactor use; RNA array
Summary of the method: as §1

glucosamine-6-phosphate [3] = variants of: B1; assay: self-cleavage kobs at 40 uM GlcN6P; higher = faster cleavage; RNA array
Summary of the method: as §1

glucosamine-6-phosphate [4] = variants of: B1; assay: self-cleavage kobs at 160 uM GlcN6P; higher = faster cleavage; RNA array
Summary of the method: as §1

glucosamine-6-phosphate [5] = variants of: B1; assay: self-cleavage kobs at 640 uM GlcN6P; higher = faster cleavage; RNA array
Summary of the method: as §1

glucosamine-6-phosphate [6] = variants of: B1; assay: self-cleavage kobs at 2500 uM GlcN6P; higher = faster cleavage; RNA array
Summary of the method: as §1

glucosamine-6-phosphate [7] = variants of: B1; assay: self-cleavage kobs at 10000 uM GlcN6P; higher = faster cleavage; RNA array
Summary of the method: as §1

Variant	kcat (glucosamine-6-phosphate [1])	KM (glucosamine-6-phosphate [2])	self-cleavage kobs at 40 uM GlcN6P (glucosamine-6-phosphate [3])	self-cleavage kobs at 160 uM GlcN6P (glucosamine-6-phosphate [4])	self-cleavage kobs at 640 uM GlcN6P (glucosamine-6-phosphate [5])	self-cleavage kobs at 2500 uM GlcN6P (glucosamine-6-phosphate [6])	self-cleavage kobs at 10000 uM GlcN6P (glucosamine-6-phosphate [7])
G41A C70U	0.0433 ± 0.0066 s⁻¹	1100 ± 210 µM	0.00159 ± 0.00013 s⁻¹	0.0046 ± 0.0007 s⁻¹	0.0179 ± 0.0025 s⁻¹	0.0385 ± 0.013 s⁻¹	0.0374 ± 0.0057 s⁻¹
A39G U45A	0.0357 ± 0.011 s⁻¹	581 ± 220 µM	0.00238 ± 0.00029 s⁻¹	0.00768 ± 0.0018 s⁻¹	0.0157 ± 0.0034 s⁻¹	0.061 ± 0.03 s⁻¹	0.0497 ± 0.018 s⁻¹
A39U C58U	1.89e-05 ± 1e-06 s⁻¹						
A39U C58A	0.000543 ± 0.00013 s⁻¹					8.13e-05 ± 1.4e-05 s⁻¹	0.000214 ± 2.7e-05 s⁻¹
A39G G40C	9.61e-05 ± 1.3e-05 s⁻¹				4.2e-05 ± 1.4e-05 s⁻¹	0.000101 ± 1.8e-05 s⁻¹	8.35e-05 ± 1.4e-05 s⁻¹
A39U	0.0425 ± 0.0086 s⁻¹	3040 ± 720 µM	0.000604 ± 1e-05 s⁻¹	0.00176 ± 7.4e-05 s⁻¹	0.00683 ± 0.00016 s⁻¹	0.019 ± 0.00075 s⁻¹	0.0347 ± 0.0012 s⁻¹
A39G	0.0923 ± 0.019 s⁻¹	2540 ± 580 µM	0.00154 ± 3.7e-05 s⁻¹	0.00433 ± 0.00024 s⁻¹	0.0174 ± 0.0013 s⁻¹	0.0472 ± 0.0047 s⁻¹	0.075 ± 0.0037 s⁻¹
A42G U46A	0.00476 ± 0.00084 s⁻¹	1200 ± 320 µM	0.000149 ± 2.5e-05 s⁻¹	0.000896 ± 0.00031 s⁻¹	0.00178 ± 0.00057 s⁻¹		0.00455 ± 0.00072 s⁻¹
G40U A53G	0.00428 ± 0.0018 s⁻¹		0.00024 ± 5.5e-05 s⁻¹	0.000703 ± 0.0002 s⁻¹	0.00118 ± 0.00028 s⁻¹	0.00316 ± 0.00063 s⁻¹	0.0062 ± 0.0017 s⁻¹
G40U A53C	0.00186 ± 0.00029 s⁻¹	2780 ± 760 µM	4.37e-05 ± 1.2e-05 s⁻¹	0.00012 ± 3.1e-05 s⁻¹	0.000309 ± 4.6e-05 s⁻¹	0.00086 ± 0.0001 s⁻¹	0.00149 ± 0.00016 s⁻¹
G40U U46C U47G	2.86e-05 ± 4.9e-06 s⁻¹						
G41C A52G	1.14e-05 ± 2.5e-06 s⁻¹						
G41C A52U	1.27e-05 ± 7.6e-07 s⁻¹		< 1e-05 s⁻¹	< 1e-05 s⁻¹			
A39G C58G C71A	2.19e-05 ± 5.6e-06 s⁻¹						
G40C G66A	0.00247 ± 0.00097 s⁻¹		9.75e-05 ± 2.1e-05 s⁻¹	0.000162 ± 4.5e-05 s⁻¹	0.00111 ± 0.0003 s⁻¹	0.00108 ± 0.00021 s⁻¹	0.00269 ± 0.0004 s⁻¹
G41U A42G	0.000998 ± 0.00021 s⁻¹	1240 ± 450 µM	4.79e-05 ± 9.1e-06 s⁻¹	9.47e-05 ± 2e-05 s⁻¹	0.000285 ± 6.2e-05 s⁻¹	0.000816 ± 0.00012 s⁻¹	0.000843 ± 0.00012 s⁻¹
G40U U46A	0.000471 ± 0.00012 s⁻¹	2940 ± 1400 µM			6.83e-05 ± 2.4e-05 s⁻¹	0.00028 ± 5.4e-05 s⁻¹	0.000331 ± 7.2e-05 s⁻¹

Variant	kcat (glucosamine-6-phosphate [1])	KM (glucosamine-6-phosphate [2])	self-cleavage kobs at 40 uM GlcN6P (glucosamine-6-phosphate [3])	self-cleavage kobs at 160 uM GlcN6P (glucosamine-6-phosphate [4])	self-cleavage kobs at 640 uM GlcN6P (glucosamine-6-phosphate [5])	self-cleavage kobs at 2500 uM GlcN6P (glucosamine-6-phosphate [6])	self-cleavage kobs at 10000 uM GlcN6P (glucosamine-6-phosphate [7])
A42G U54A	0.0214 ± 0.0099 s⁻¹		0.000967 ± 0.00013 s⁻¹	0.00396 ± 0.0011 s⁻¹	0.029 ± 0.0057 s⁻¹		0.0172 ± 0.004 s⁻¹
G40U A42U	0.000115 ± 2e-05 s⁻¹			2.53e-05 ± 1.2e-05 s⁻¹	4.15e-05 ± 9.6e-06 s⁻¹	0.000109 ± 1.3e-05 s⁻¹	9.45e-05 ± 1.4e-05 s⁻¹
G41U A64G	0.000821 ± 6e-05 s⁻¹	2970 ± 430 µM		3.5e-05 ± 9.6e-06 s⁻¹	0.00015 ± 2.3e-05 s⁻¹	0.000414 ± 5.2e-05 s⁻¹	0.000621 ± 4.9e-05 s⁻¹
A39U G40A C67A	0.000278 ± 2.3e-05 s⁻¹	760 ± 190 µM			0.000124 ± 3.1e-05 s⁻¹	0.000245 ± 6.5e-05 s⁻¹	0.000247 ± 5e-05 s⁻¹
G41C U45G G66C	4.62e-05 ± 1e-05 s⁻¹						2.84e-05 ± 1.2e-05 s⁻¹
G40A G41C	0.000139 ± 2e-05 s⁻¹				4.87e-05 ± 1.8e-05 s⁻¹	0.000179 ± 4.9e-05 s⁻¹	0.000123 ± 1.4e-05 s⁻¹
A39G C50A G51U C71G	1.15e-05 ± 3.2e-06 s⁻¹						
A42C C67A	0.000122 ± 1.6e-05 s⁻¹	1160 ± 560 µM			5.06e-05 ± 1.6e-05 s⁻¹	5.66e-05 ± 2.8e-05 s⁻¹	0.000114 ± 1.7e-05 s⁻¹
A42G A53U	0.0339 ± 0.012 s⁻¹	2240 ± 990 µM	0.000764 ± 0.00011 s⁻¹	0.00186 ± 0.00035 s⁻¹	0.0076 ± 0.0013 s⁻¹	0.0159 ± 0.0028 s⁻¹	0.0373 ± 0.009 s⁻¹
A42C C70U	1.24e-05 ± 3.3e-06 s⁻¹						
A42C C70G	4.99e-05 ± 4.3e-06 s⁻¹	1410 ± 550 µM				3.37e-05 ± 7.9e-06 s⁻¹	4.32e-05 ± 6.7e-06 s⁻¹
G40U A52G	0.000217 ± 3.4e-05 s⁻¹	1490 ± 600 µM			7.61e-05 ± 1.5e-05 s⁻¹	0.000112 ± 1.8e-05 s⁻¹	0.000206 ± 2.5e-05 s⁻¹
G40U A52U	0.000102 ± 6.2e-06 s⁻¹	2510 ± 550 µM				4.82e-05 ± 9.8e-06 s⁻¹	8.17e-05 ± 6.8e-06 s⁻¹
A42C U69C	0.000251 ± 7e-05 s⁻¹				0.000126 ± 2.7e-05 s⁻¹	0.000165 ± 6.2e-05 s⁻¹	0.000346 ± 0.00013 s⁻¹
G40A U55G	0.00116 ± 0.00032 s⁻¹	369 ± 170 µM	0.000131 ± 1.8e-05 s⁻¹	0.000246 ± 5.5e-05 s⁻¹	0.000944 ± 0.00014 s⁻¹		0.00106 ± 0.00018 s⁻¹
A39U G51A	< 1e-05 s⁻¹		< 1e-05 s⁻¹	< 1e-05 s⁻¹			< 1e-05 s⁻¹
